Article PMC8639797

Target: ALK ECR^ABR variants with single substitutions in the TNF-like or EGF-like domains (BLI, Fig. 2d)
Assay: BLI

B1: ALKAL2-AD (residues 77–152) (domain or fragment)
chain: GPSPEQRVEIVPRDLRMKDKFLKHLTGPLYFSPKCSKHFHRLYHNTRDCTIPAYYKRCARLLTRLAVSPVCMEDKQ
fold reduction of affinity against wild type: 2 to 3 fold
